Experimental findings from patent EP4745153A1, “GLP-1, GIP AND GCG RECEPTOR […] USE THEREOF” (Jiangsu Hengrui Pharmaceuticals Co., Ltd., priority 2023, dated 2025) are described below.

Where two headings read alike, the source gives them in different places. Starred links: 1 amine or outer side, 2 acyl side, 3 side chain; linkers in the order of their positions; H or OH if unused. Non-standard residues stand in square brackets, D forms with d. Groups on a side chain read outwards from the residue. No end group written: not given here. *: point of attachment. C20 diacid = O=C(O)CCCCCCCCCCCCCCCCCCC(=O)*; C17 diacid = O=C(O)CCCCCCCCCCCCCCCC(=O)*; γGlu = O=C(O)[C@H](CCC(=O)[*:2])N[*:1]; αMeY = C[C@](N)(Cc1ccc(O)cc1)C(=O)O; αMeL = CC(C)C[C@](C)(N)C(=O)O; αMeK = C[C@](N)(CCCCN)C(=O)O; Iva = CC[C@](C)(N)C(=O)O; AEEA = NCCOCCOCC(=O)O; Aib = CC(C)(N)C(=O)O

Holding throughout (experiment): cell-based or functional assay
In assay [1] the target is T1, human glucagon receptor (human, UniProt P47871 26-477).
The target of assay [2] is T2, human glucose-dependent insulinotropic polypeptide receptor (human, UniProt P48546 22-466).
T2 sequence (looked up): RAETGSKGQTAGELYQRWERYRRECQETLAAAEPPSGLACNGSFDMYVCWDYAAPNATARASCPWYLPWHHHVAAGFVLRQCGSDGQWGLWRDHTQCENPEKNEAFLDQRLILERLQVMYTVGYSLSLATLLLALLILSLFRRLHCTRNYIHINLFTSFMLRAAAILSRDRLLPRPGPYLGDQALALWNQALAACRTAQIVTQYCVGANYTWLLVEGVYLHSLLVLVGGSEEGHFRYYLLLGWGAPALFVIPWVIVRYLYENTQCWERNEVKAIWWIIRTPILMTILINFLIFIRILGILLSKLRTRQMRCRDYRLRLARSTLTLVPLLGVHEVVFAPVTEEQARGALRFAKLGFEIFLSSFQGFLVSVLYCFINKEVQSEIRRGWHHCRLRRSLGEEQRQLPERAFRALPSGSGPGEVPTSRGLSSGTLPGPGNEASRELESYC

For assay [3], the target named is T3, human glucagon-like peptide-1 receptor (human, UniProt P43220 24-463).
For assay [4], the target named is T1, human glucagon receptor. The source holds these as a separate data set.
The target in assay [5] is T2, human glucose-dependent insulinotropic …. The source holds these as a separate data set.
In assay [6] the target is T3, human glucagon-like peptide-1 receptor. The source holds these as a separate data set.

T1 sequence (P47871 26-477): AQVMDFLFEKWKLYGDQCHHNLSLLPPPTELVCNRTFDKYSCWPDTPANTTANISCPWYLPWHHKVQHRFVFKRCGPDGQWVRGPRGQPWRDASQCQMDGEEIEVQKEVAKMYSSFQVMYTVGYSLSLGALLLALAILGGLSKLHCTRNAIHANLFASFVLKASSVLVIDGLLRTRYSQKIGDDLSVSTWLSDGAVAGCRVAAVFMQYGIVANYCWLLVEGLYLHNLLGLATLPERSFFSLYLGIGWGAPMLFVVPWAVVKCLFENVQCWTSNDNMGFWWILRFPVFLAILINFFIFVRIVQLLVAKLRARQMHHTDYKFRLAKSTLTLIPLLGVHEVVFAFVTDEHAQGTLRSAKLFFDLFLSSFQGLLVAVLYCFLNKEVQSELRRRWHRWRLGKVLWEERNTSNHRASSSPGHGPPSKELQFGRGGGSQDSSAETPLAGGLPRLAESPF

B1: Compound No. 0109 (peptide)
peptide: H[Aib]HGTFTSDYSKYLEK([AEEA-AEEA-γGlu-C20 diacid])[αMeK]AAQEFVEWLLAGGPSSGAPPPS-NH2
modifications: N-terminus assumed
SMILES: CC(C)C[C@H](NC(=O)[C@H](CC(C)C)NC(=O)[C@H](Cc1c[nH]c2ccccc12)NC(=O)[C@H](CCC(=O)O)NC(=O)[C@@H](NC(=O)[C@H](Cc1ccccc1)NC(=O)[C@H](CCC(=O)O)NC(=O)[C@H](CCC(N)=O)NC(=O)[C@H](C)NC(=O)[C@H](C)NC(=O)[C@](C)(CCCCN)NC(=O)[C@H](CCCCNC(=O)COCCOCCNC(=O)COCCOCCNC(=O)CC[C@H](NC(=O)CCCCCCCCCCCCCCCCCCC(=O)O)C(=O)O)NC(=O)[C@H](CCC(=O)O)NC(=O)[C@H](CC(C)C)NC(=O)[C@H](Cc1ccc(O)cc1)NC(=O)[C@H](CCCCN)NC(=O)[C@H](CO)NC(=O)[C@H](Cc1ccc(O)cc1)NC(=O)[C@H](CC(=O)O)NC(=O)[C@H](CO)NC(=O)[C@@H](NC(=O)[C@H](Cc1ccccc1)NC(=O)[C@@H](NC(=O)CNC(=O)[C@H](Cc1c[nH]cn1)NC(=O)C(C)(C)NC(=O)[C@@H](N)Cc1c[nH]cn1)[C@@H](C)O)[C@@H](C)O)C(C)C)C(=O)N[C@@H](C)C(=O)NCC(=O)NCC(=O)N1CCC[C@H]1C(=O)N[C@@H](CO)C(=O)N[C@@H](CO)C(=O)NCC(=O)N[C@@H](C)C(=O)N1CCC[C@H]1C(=O)N1CCC[C@H]1C(=O)N1CCC[C@H]1C(=O)N[C@@H](CO)C(N)=O
On to B1, for which the “Activity against human GCGR (EC50 nM)” value with human glucagon receptor [1] is 0.031 nM. The “Activity against human GIPR (EC50 nM)” value in assay [2] is 0.027 nM. Also, the “Activity against human GLP-1R (EC50 nM)” value in assay [3] came out at 0.011 nM.

B2: Compound No. 0130 (peptide)
peptide: H[Aib]HGTFTSDYS[αMeK]ILEK([AEEA-AEEA-γGlu-C20 diacid])QAA[Iva]EFVEWLLAGGPSSGAPPPS-NH2
Regarding B2, the “Activity against human GCGR (EC50 nM)” value with human glucagon receptor [4] was 0.03 nM. In addition, in assay [5], the “Activity against human GIPR (EC50 nM)” value came out at 0.0005 nM. Also, the “Activity against human GLP-1R (EC50 nM)” value in assay [6] is 0.048 nM.

B3: Compound No. 0129 (peptide)
peptide: Y[Aib]QGTFTSDYS[αMeK]ILEK([AEEA-AEEA-γGlu-C20 diacid])KAA[Iva]EFVEWLLAGGPSSGAPPPS-NH2
Regarding B3, the “Activity against human GCGR (EC50 nM)” value in the assay with human glucagon receptor [4] was found to be 0.067 nM. Moreover, the “Activity against human GIPR (EC50 nM)” value in assay [5] turned out to be 0.002 nM. In addition, the “Activity against human GLP-1R (EC50 nM)” value in assay [6] came to 0.159 nM.

B4: Compound No. 0110 (peptide)
peptide: H[Aib]HGTFTSDYSKYLEK([AEEA-AEEA-γGlu-C20 diacid])K[Aib]AQEFVEWLLAGGPSSGAPPPS-NH2
modifications: N-terminus assumed
SMILES: CC(C)C[C@H](NC(=O)[C@H](CC(C)C)NC(=O)[C@H](Cc1c[nH]c2ccccc12)NC(=O)[C@H](CCC(=O)O)NC(=O)[C@@H](NC(=O)[C@H](Cc1ccccc1)NC(=O)[C@H](CCC(=O)O)NC(=O)[C@H](CCC(N)=O)NC(=O)[C@H](C)NC(=O)C(C)(C)NC(=O)[C@H](CCCCN)NC(=O)[C@H](CCCCNC(=O)COCCOCCNC(=O)COCCOCCNC(=O)CC[C@H](NC(=O)CCCCCCCCCCCCCCCCCCC(=O)O)C(=O)O)NC(=O)[C@H](CCC(=O)O)NC(=O)[C@H](CC(C)C)NC(=O)[C@H](Cc1ccc(O)cc1)NC(=O)[C@H](CCCCN)NC(=O)[C@H](CO)NC(=O)[C@H](Cc1ccc(O)cc1)NC(=O)[C@H](CC(=O)O)NC(=O)[C@H](CO)NC(=O)[C@@H](NC(=O)[C@H](Cc1ccccc1)NC(=O)[C@@H](NC(=O)CNC(=O)[C@H](Cc1c[nH]cn1)NC(=O)C(C)(C)NC(=O)[C@@H](N)Cc1c[nH]cn1)[C@@H](C)O)[C@@H](C)O)C(C)C)C(=O)N[C@@H](C)C(=O)NCC(=O)NCC(=O)N1CCC[C@H]1C(=O)N[C@@H](CO)C(=O)N[C@@H](CO)C(=O)NCC(=O)N[C@@H](C)C(=O)N1CCC[C@H]1C(=O)N1CCC[C@H]1C(=O)N1CCC[C@H]1C(=O)N[C@@H](CO)C(N)=O
For the molecule B4, the “Activity against human GCGR (EC50 nM)” value with human glucagon receptor [1] is 0.044 nM. For the same molecule, the “Activity against human GIPR (EC50 nM)” value in assay [2] is 0.043 nM. Further, the “Activity against human GLP-1R (EC50 nM)” value in assay [3] turned out to be 0.016 nM.

B5: Compound No. 0106 (peptide)
peptide: H[Aib]HGTFTSDYSK[αMeY]LEK([AEEA-AEEA-γGlu-C17 diacid])KAAQEFVEWLLAGGPSSGAPPPS-NH2
modifications: N-terminus assumed
SMILES: CC(C)C[C@H](NC(=O)[C@H](CC(C)C)NC(=O)[C@H](Cc1c[nH]c2ccccc12)NC(=O)[C@H](CCC(=O)O)NC(=O)[C@@H](NC(=O)[C@H](Cc1ccccc1)NC(=O)[C@H](CCC(=O)O)NC(=O)[C@H](CCC(N)=O)NC(=O)[C@H](C)NC(=O)[C@H](C)NC(=O)[C@H](CCCCN)NC(=O)[C@H](CCCCNC(=O)COCCOCCNC(=O)COCCOCCNC(=O)CC[C@H](NC(=O)CCCCCCCCCCCCCCCC(=O)O)C(=O)O)NC(=O)[C@H](CCC(=O)O)NC(=O)[C@H](CC(C)C)NC(=O)[C@](C)(Cc1ccc(O)cc1)NC(=O)[C@H](CCCCN)NC(=O)[C@H](CO)NC(=O)[C@H](Cc1ccc(O)cc1)NC(=O)[C@H](CC(=O)O)NC(=O)[C@H](CO)NC(=O)[C@@H](NC(=O)[C@H](Cc1ccccc1)NC(=O)[C@@H](NC(=O)CNC(=O)[C@H](Cc1c[nH]cn1)NC(=O)C(C)(C)NC(=O)[C@@H](N)Cc1c[nH]cn1)[C@@H](C)O)[C@@H](C)O)C(C)C)C(=O)N[C@@H](C)C(=O)NCC(=O)NCC(=O)N1CCC[C@H]1C(=O)N[C@@H](CO)C(=O)N[C@@H](CO)C(=O)NCC(=O)N[C@@H](C)C(=O)N1CCC[C@H]1C(=O)N1CCC[C@H]1C(=O)N1CCC[C@H]1C(=O)N[C@@H](CO)C(N)=O
Consider B5, for which the “Activity against human GCGR (EC50 nM)” value in the assay with human glucagon receptor [1] amounted to 0.095 nM. Further, the “Activity against human GIPR (EC50 nM)” value in assay [2] came out at 0.027 nM. Also, the “Activity against human GLP-1R (EC50 nM)” value in assay [3] turned out to be 0.03 nM.

B6: Compound No. 0108 (peptide)
peptide: H[Aib]HGTFTSDYSKY[αMeL]EK([AEEA-AEEA-γGlu-C20 diacid])KAAQEFVEWLLAGGPSSGAPPPS-NH2
modifications: N-terminus assumed
SMILES: CC(C)C[C@H](NC(=O)[C@H](CC(C)C)NC(=O)[C@H](Cc1c[nH]c2ccccc12)NC(=O)[C@H](CCC(=O)O)NC(=O)[C@@H](NC(=O)[C@H](Cc1ccccc1)NC(=O)[C@H](CCC(=O)O)NC(=O)[C@H](CCC(N)=O)NC(=O)[C@H](C)NC(=O)[C@H](C)NC(=O)[C@H](CCCCN)NC(=O)[C@H](CCCCNC(=O)COCCOCCNC(=O)COCCOCCNC(=O)CC[C@H](NC(=O)CCCCCCCCCCCCCCCCCCC(=O)O)C(=O)O)NC(=O)[C@H](CCC(=O)O)NC(=O)[C@](C)(CC(C)C)NC(=O)[C@H](Cc1ccc(O)cc1)NC(=O)[C@H](CCCCN)NC(=O)[C@H](CO)NC(=O)[C@H](Cc1ccc(O)cc1)NC(=O)[C@H](CC(=O)O)NC(=O)[C@H](CO)NC(=O)[C@@H](NC(=O)[C@H](Cc1ccccc1)NC(=O)[C@@H](NC(=O)CNC(=O)[C@H](Cc1c[nH]cn1)NC(=O)C(C)(C)NC(=O)[C@@H](N)Cc1c[nH]cn1)[C@@H](C)O)[C@@H](C)O)C(C)C)C(=O)N[C@@H](C)C(=O)NCC(=O)NCC(=O)N1CCC[C@H]1C(=O)N[C@@H](CO)C(=O)N[C@@H](CO)C(=O)NCC(=O)N[C@@H](C)C(=O)N1CCC[C@H]1C(=O)N1CCC[C@H]1C(=O)N1CCC[C@H]1C(=O)N[C@@H](CO)C(N)=O
Consider B6, for which the “Activity against human GCGR (EC50 nM)” value with human glucagon receptor [1] was found to be 0.315 nM. Besides, in assay [2], the “Activity against human GIPR (EC50 nM)” value stood at 0.078 nM. In addition, in assay [3], the “Activity against human GLP-1R (EC50 nM)” value was found to be 0.014 nM.

B7: Compound No. 0104 (peptide)
peptide: H[Aib]HGTFTSDYS[αMeK]YLEK([AEEA-AEEA-γGlu-C20 diacid])KAAQEFVEWLLAGGPSSGAPPPS-NH2
modifications: N-terminus assumed
SMILES: CC(C)C[C@H](NC(=O)[C@H](CC(C)C)NC(=O)[C@H](Cc1c[nH]c2ccccc12)NC(=O)[C@H](CCC(=O)O)NC(=O)[C@@H](NC(=O)[C@H](Cc1ccccc1)NC(=O)[C@H](CCC(=O)O)NC(=O)[C@H](CCC(N)=O)NC(=O)[C@H](C)NC(=O)[C@H](C)NC(=O)[C@H](CCCCN)NC(=O)[C@H](CCCCNC(=O)COCCOCCNC(=O)COCCOCCNC(=O)CC[C@H](NC(=O)CCCCCCCCCCCCCCCCCCC(=O)O)C(=O)O)NC(=O)[C@H](CCC(=O)O)NC(=O)[C@H](CC(C)C)NC(=O)[C@H](Cc1ccc(O)cc1)NC(=O)[C@](C)(CCCCN)NC(=O)[C@H](CO)NC(=O)[C@H](Cc1ccc(O)cc1)NC(=O)[C@H](CC(=O)O)NC(=O)[C@H](CO)NC(=O)[C@@H](NC(=O)[C@H](Cc1ccccc1)NC(=O)[C@@H](NC(=O)CNC(=O)[C@H](Cc1c[nH]cn1)NC(=O)C(C)(C)NC(=O)[C@@H](N)Cc1c[nH]cn1)[C@@H](C)O)[C@@H](C)O)C(C)C)C(=O)N[C@@H](C)C(=O)NCC(=O)NCC(=O)N1CCC[C@H]1C(=O)N[C@@H](CO)C(=O)N[C@@H](CO)C(=O)NCC(=O)N[C@@H](C)C(=O)N1CCC[C@H]1C(=O)N1CCC[C@H]1C(=O)N1CCC[C@H]1C(=O)N[C@@H](CO)C(N)=O
Take B7: the “Activity against human GCGR (EC50 nM)” value with human glucagon receptor [1] came out at 0.037 nM. Further, the “Activity against human GIPR (EC50 nM)” value in assay [2] amounted to 0.016 nM. Also, the “Activity against human GLP-1R (EC50 nM)” value in assay [3] is 0.01 nM.

B8: Compound No. 0127 (peptide)
peptide: Y[Aib]QGTFTSDYS[αMeK]LLEK([AEEA-AEEA-γGlu-C20 diacid])KAA[Iva]EFVEWLLAGGPSSGAPPPS-NH2
As to B8, the “Activity against human GCGR (EC50 nM)” value in the assay with human glucagon receptor [4] came out at 0.037 nM. For the same molecule, the “Activity against human GIPR (EC50 nM)” value in assay [5] came out at 0.0007 nM. For the same molecule, the “Activity against human GLP-1R (EC50 nM)” value in assay [6] turned out to be 0.132 nM.
